According to patent US20240261333A1, “NOVEL TARGETS FOR ENHANCING ANTI-TUMOR IMMUNITY” (THE BROAD INSTITUTE, INC., priority 2021, published 2024):

T1: B3GNT2 (Homo sapiens, UniProt Q9NY97)
T1 construct: The respective ORFs of candidate genes [CD274 (NM_014143), MCL1 (NM_021960), JUNB (NM_002229), and B3GNT2 (NM_006577)] were synthesized; expressed in transfected cells; host or cells: A375 melanoma cells (lentiviral ORF overexpression)
T1 sequence (Q9NY97 1-397): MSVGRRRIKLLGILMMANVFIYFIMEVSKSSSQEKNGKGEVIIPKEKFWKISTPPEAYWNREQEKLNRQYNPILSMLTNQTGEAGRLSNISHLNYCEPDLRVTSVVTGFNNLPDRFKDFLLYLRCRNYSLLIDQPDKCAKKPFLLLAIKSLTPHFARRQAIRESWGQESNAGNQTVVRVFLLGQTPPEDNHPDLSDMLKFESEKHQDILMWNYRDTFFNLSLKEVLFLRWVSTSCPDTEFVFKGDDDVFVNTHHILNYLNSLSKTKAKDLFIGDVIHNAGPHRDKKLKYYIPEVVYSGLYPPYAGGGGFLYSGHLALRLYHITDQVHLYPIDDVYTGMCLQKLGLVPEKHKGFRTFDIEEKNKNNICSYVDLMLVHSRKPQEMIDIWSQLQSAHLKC

B1: DPM1 (protein, UniProt O60762 2-260, looked up)
Dolichol-phosphate …: ASLEVSRSPRRSRRELEVRSPRQNKYSVLLPTYNERENLPLIVWLLVKSFSESGINYEIIIIDDGSPDGTRDVAEQLEKIYGSDRILLRPREKKLGLGTAYIHGMKHATGNYIIIMDADLSHHPKFIPEFIRKQKEGNFDIVSGTRYKGNGGVYGWDLKRKIISRGANFLTQILLRPGASDLTGSFRLYRKEVLEKLIEKCVSKGYVFQMEMIVRARQLNYTIGEVPISFVDRVYGESKLGGNEIVSFLKGLLTLFATT
B2: TRIM28 (protein)
chain: AASAAAASAAAASAASGSPGPGEGSAGGEKRSTAPSAAASASASAAASSPAGGGAEALELLEHCGVCRERLRPEREPRLLPCLHSACSACLGPAAPAAANSSGDGGAAGDGTVVDCPVCKQQCFSKDIVENYFMRDSGSKAATDAQDANQCCTSCEDNAPATSYCVECSEPLCETCVEAHQRVKYTKDHTVRSTGPAKSRDGERTVYCNVHKHEPLVLFCESCDTLTCRDCQLNAHKDHQYQFLEDAVRNQRKLLASLVKRLGDKHATLQKSTKEVRSSIRQVSDVQKRVQVDVKMAILQIMKELNKRGRVLVNDAQKVTEGQQERLERQHWTMTKIQKHQEHILRFASWALESDNNTALLLSKKLIYFQLHRALKMIVDPVEPHGEMKFQWDLNAWTKSAEAFGKIVAERPGTNSTGPAPMAPPRAPGPLSKQGSGSSQPMEVQEGYGFGSGDDPYSSAEPHVSGVKRSRSGEGEVSGLMRKVPRVSLERLDLDLTADSQPPVFKVFPGSTTEDYNLIVIERGAAAAATGQPGTAPAGTPGAPPLAGMAIVKEEETEAAIGAPPTATEGPETKPVLMALAEGPGAEGPRLASPSGSTSSGLEVVAPEGTSAPGGGPGTLDDSATICRVCQKPGDLVMCNQCEFCFHLDCHLPALQDVPGEEWSCSLCHVLPDLKEEDGSLSLDGADSTGVVAKLSPANQRKCERVLLALFCHEPCRPLHQLATDSTFSLDQPGGTLDLTLIRARLQEKLSPPYSSPQEFAQDVGRMFKQFNKLTEDKADVQSIIGLQRFFETRMNEAFGDTKFSAVLVEPPPMSLPGAGLSSQELSGGPGDGP
B3: SMN1 (protein)
chain: AMSSGGSGGGVPEQEDSVLFRRGTGQSDDSDIWDDTALIKAYDKAVASFKHALKNGDICETSGKPKTTPKRKPAKKNKSQKKNTAASLQQWKVGDKCSAIWSEDGCIYPATIASIDFKRETCVVVYTGYGNREEQNLSDLLSPICEVANNIEQNAQENENESQVSTDESENSRSPGNKSDNIKPKSAPWNSFLPPPPPMPGPRLGPGKPGLKFNGPPPPPPPPPPHLLSCWLPPFPSGPPIIPPPPPICPDSLDDADALGSMLISWYMSGYHTGYYMEMLA
B4: OS9 (protein)
chain: GGVGSLNLEELSEMRYGIEILPLPVMGGQSQSSDVVIVSSKYKQRYECRLPAGAIHFQREREEETPAYQGPGIPELLSPMRDAPCLLKTKDWWTYEFCYGRHIQQYHMEDSEIKGEVLYLGYYQSAFDWDDETAKASKQHRLKRYHSQTYGNGSKCDLNGRPREAEVRFLCDEGAGISGDYIDRVDEPLSCSYVLTIRTPRLCPHPLLRPPPSAAPQAILCHPSLQPEEYMAYVQRQADSKQYGDKIIEELQDLGPQVWSETKSGVAPQKMAGASPTKDDSKDSDFWKMLNEPEDQAPGGEEVPAEEQDPSPEAADSASGAPNDFQNNVQVKVIRSPADLIRFIEELKGGTKKGKPNIGQEQPVDDAAEVPQREPEKERGDPERQREMEEEEDEDEDEDEDEDERQLLGEFEKELEGILLPSDRDRLRSETEKELDPDGLKKESERDRAMLALTSTLNKLIKRLEEKQSPELVKKHKKKRVVPKKPPPSPQPTEEDPEHRVRVRVTKLRLGGPNQDLTVLEMKRENPQLKQIEGLVKELLEREGLTAAGKIEIKIVRPWAEGTEEGARWLTDEDTRNLKEIFFNILVPGAEEAQKERQRQKELESNYRRVWGSPGGEGTGDLDEFDF
B5: LOXL4 (protein)
chain: QSLGTTKLRLVGPESKPEEGRLEVLHQGQWGTVCDDNFAIQEATVACRQLGFEAALTWAHSAKYGQGEGPIWLDNVRCVGTESSLDQCGSNGWGVSDCSHSEDVGVICHPRRHRGYLSETVSNALGPQGRRLEEVRLKPILASAKQHSPVTEGAVEVKYEGHWRQVCDQGWTMNNSRVVCGMLGFPSEVPVDSHYYRKVWDLKMRDPKSRLKSLTNKNSFWIHQVTCLGTEPHMANCQVQVAPARGKLRPACPGGMHAVVSCVAGPHFRPPKTKPQRKGSWAEEPRVRLRSGAQVGEGRVEVLMNRQWGTVCDHRWNLISASVVCRQLGFGSAREALFGARLGQGLGPIHLSEVRCRGYERTLSDCPALEGSQNGCQHENDAAVRCNVPNMGFQNQVRLAGGRIPEEGLLEVQVEVNGVPRWGSVCSENWGLTEAMVACRQLGLGFAIHAYKETWFWSGTPRAQEVVMSGVRCSGTELALQQCQRHGPVHCSHGGGRFLAGVSCMDSAPDLVMNAQLVQETAYLEDRPLSQLYCAHEENCLSKSADHMDWPYGYRRLLRFSTQIYNLGRTDFRPKTGRDSWVWHQCHRHYHSIEVFTHYDLLTLNGSKVAEGHKASFCLEDTNCPTGLQRRYACANFGEQGVTVGCWDTYRHDIDCQWVDITDVGPGNYIFQVIVNPHYEVAESDFSNNMLQCRCKYDGHRVWLHNCHTGNSYPANAELSLEQEQRLRNNLI
B6: GNAS (protein)
chain: MGVRNCLYGNNMSGQRDIPPEIGEQPEQPPLEAPGAAAPGAGPSPAEEMETEPPHNEPIPVENDGEACGPPEVSRPNFQVLNPAFREAGAHGSYSPPPEEAMPFEAEQPSLGGFWPTLEQPGFPSGVHAGLEAFGPALMEPGAFSGARPGLGGYSPPPEEAMPFEFDQPAQRGCSQLLLQVPDLAPGGPGAAGVPGAPPEEPQALRPAKAGSRGGYSPPPEETMPFELDGEGFGDDSPPPGLSRVIAQVDGSSQFAAVAASSAVRLTPAANAPPLWVPGAIGSPSQEAVRPPSNFTGSSPWMEISGPPFEIGSAPAGVDDTPVNMDSPPIALDGPPIKVSGAPDKRERAERPPVEEEAAEMEGAADAAEGGKVPSPGYGSPAAGAASADTAARAAPAAPADPDSGATPEDPDSGTAPADPDSGAFAADPDSGAAPAAPADPDSGAAPDAPADPDSGAAPDAPADPDAGAAPEAPAAPAAAETRAAHVAPAAPDAGAPTAPAASATRAAQVRRAASAAPASGARRKIHLRPPSPEIQAADPPTPRPTRASAWRGKSESSRGRRVYYDEGVASSDDDSSGDESDDGTSGCLRWFQHRRNRRRRKPQRNLLRNFLVQAFGGCFGRSESPQPKASRSLKVKKVPLAEKRRQMRKEALEKRAQKRAEKKRSKLIDKQLQDEKMGYMCTHRLLLLGAGESGKSTIVKQMRILHVNGFNGEGGEEDPQAARSNSDGEKATKVQDIKNNLKEAIETIVAAMSNLVPPVELANPENQFRVDYILSVMNVPDFDFPPEFYEHAKALWEDEGVRACYERSNEYQLIDCAQYFLDKIDVIKQADYVPSDQDLLRCRVLTSGIFETKFQVDKVNFHMFDVGGQRDERRKWIQCFNDVTAIIFVVASSSYNMVIREDNQTNRLQEALNLFKSIWNNRWLRTISVILFLNKQDLLAEKVLAGKSKIEDYFPEFARYTTPEDATPEPGEDPRVTRAKYFIRDEFLRISTASGDGRHYCYPHFTCAVDTENIRRVFNDCRDIIQRMHLRQYELL

target: T1, B3GNT2; assay: Co-IP of FLAG-tagged B3GNT2 followed by mass spectrometry; assay type: cell-based; parameters: C-term IgG / C-term flag: unit not given here; conditions: Co-IP with FLAG antibody, C-terminally FLAG-tagged B3GNT2; mass spectrometry count, unit not given
Summary of the method: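 FLAG-tagged B3GNT2 immunoprecipitated from cell lysate (HEPES, 1% Triton X-100, 150 mM NaCl) with anti-FLAG versus […], overnight at 4° C, then captured on Protein A/G magnetic beads for 4 h. Two biological replicates per condition. Peptides fractionated and analyzed by nano-LC on an Orbitrap Elite in data-dependent mode.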

C-term flag	Molecule
8	B1
8	B2
14	B3
9	B4
8	B5
2	B6

same assay, conditions: Co-IP with FLAG antibody, N-terminally FLAG-tagged B3GNT2; mass spectrometry count, unit not given

N-term FLAG	Molecule
4	B1
4	B2
10	B3
3	B4
5	B5
0	B6

same assay, conditions: Co-IP with IgG control antibody, C-terminally FLAG-tagged B3GNT2; mass spectrometry count, unit not given

C-term IgG	Molecule
0	B1
0	B2
2	B3
0	B4
0	B5
0	B6

same assay, conditions: Co-IP with IgG control antibody, N-terminally FLAG-tagged B3GNT2; mass spectrometry count, unit not given

N-term IgG	Molecule
0	B1
0	B2
0	B3
0	B4
0	B5
0	B6
